Laboratory results: patent CN114874330A

Experiments:
CT103A scFv [1] = experiment: competition ELISA, antibody at 500 ng/ml pre-incubated with biotin-CT103A scFv; competitor: coated BCMA
CT103A scFv [2] = experiment: competition ELISA, antibody at 1000 ng/ml pre-incubated with biotin-CT103A scFv; competitor: coated BCMA
[3] = target: BCMA-CAR (CAR with the CT103A scFv) on cells; experiment: flow cytometry, AF647-labelled antibody on BCMA-CAR-Jurkat cells; first series, 2-fold dilution step 2 of 10; parameters: scale not given here
[4] = target: BCMA-CAR (CAR with the CT103A scFv) on cells; experiment: flow cytometry, AF647-labelled antibody on BCMA-CAR-Jurkat cells; first series, 2-fold dilution step 3 of 10; parameters: scale not given here
[5] = target: BCMA-CAR (CAR with the CT103A scFv) on cells; experiment: flow cytometry, AF647-labelled antibody on BCMA-CAR-Jurkat cells; first series, 2-fold dilution step 4 of 10; parameters: scale not given here
[6] = target: BCMA-CAR (CAR with the CT103A scFv) on cells; experiment: flow cytometry, AF647-labelled antibody on BCMA-CAR-Jurkat cells; first series, 2-fold dilution step 5 of 10; parameters: scale not given here
[7] = target: BCMA-CAR (CAR with the CT103A scFv) on cells; experiment: flow cytometry, AF647-labelled antibody on BCMA-CAR-Jurkat cells; first series, 2-fold dilution step 6 of 10; parameters: scale not given here
[8] = target: BCMA-CAR (CAR with the CT103A scFv) on cells; experiment: flow cytometry, AF647-labelled antibody on BCMA-CAR-Jurkat cells; first series, 2-fold dilution step 7 of 10; parameters: scale not given here
[9] = target: BCMA-CAR (CAR with the CT103A scFv) on cells; experiment: flow cytometry, AF647-labelled antibody on BCMA-CAR-Jurkat cells; first series, 2-fold dilution step 8 of 10; parameters: scale not given here
[10] = target: BCMA-CAR (CAR with the CT103A scFv) on cells; experiment: flow cytometry, AF647-labelled antibody on BCMA-CAR-Jurkat cells; first series, 2-fold dilution step 9 of 10; parameters: scale not given here
[11] = target: BCMA-CAR (CAR with the CT103A scFv) on cells; experiment: flow cytometry, AF647-labelled antibody on BCMA-CAR-Jurkat cells; first series, 2-fold dilution step 10 of 10 (lowest); parameters: scale not given here
[12] = target: BCMA-CAR (CAR with the CT103A scFv) on cells; experiment: flow cytometry, AF647-labelled antibody on BCMA-CAR-Jurkat cells; SECOND series, also printed as 12F1 (possibly 6G8), step 2 of 10; parameters: scale not given here
[13] = target: BCMA-CAR (CAR with the CT103A scFv) on cells; experiment: flow cytometry, AF647-labelled antibody on BCMA-CAR-Jurkat cells; SECOND series, also printed as 12F1 (possibly 6G8), step 3 of 10; parameters: scale not given here
[14] = target: BCMA-CAR (CAR with the CT103A scFv) on cells; experiment: flow cytometry, AF647-labelled antibody on BCMA-CAR-Jurkat cells; SECOND series, also printed as 12F1 (possibly 6G8), step 4 of 10; parameters: scale not given here
[15] = target: BCMA-CAR (CAR with the CT103A scFv) on cells; experiment: flow cytometry, AF647-labelled antibody on BCMA-CAR-Jurkat cells; SECOND series, also printed as 12F1 (possibly 6G8), step 5 of 10; parameters: scale not given here
[16] = target: BCMA-CAR (CAR with the CT103A scFv) on cells; experiment: flow cytometry, AF647-labelled antibody on BCMA-CAR-Jurkat cells; SECOND series, also printed as 12F1 (possibly 6G8), step 6 of 10; parameters: scale not given here
[17] = target: BCMA-CAR (CAR with the CT103A scFv) on cells; experiment: flow cytometry, AF647-labelled antibody on BCMA-CAR-Jurkat cells; SECOND series, also printed as 12F1 (possibly 6G8), step 7 of 10; parameters: scale not given here
[18] = target: BCMA-CAR (CAR with the CT103A scFv) on cells; experiment: flow cytometry, AF647-labelled antibody on BCMA-CAR-Jurkat cells; SECOND series, also printed as 12F1 (possibly 6G8), step 8 of 10; parameters: scale not given here
[19] = target: BCMA-CAR (CAR with the CT103A scFv) on cells; experiment: flow cytometry, AF647-labelled antibody on BCMA-CAR-Jurkat cells; SECOND series, also printed as 12F1 (possibly 6G8), step 9 of 10; parameters: scale not given here
[20] = target: BCMA-CAR (CAR with the CT103A scFv) on cells; experiment: flow cytometry, AF647-labelled antibody on BCMA-CAR-Jurkat cells; first series, 2-fold dilution step 1 of 10 (highest); negative control MFI 0.18; parameters: scale not given here
[21] = target: BCMA-CAR (CAR with the CT103A scFv) on cells; experiment: flow cytometry, AF647-labelled antibody on BCMA-CAR-Jurkat cells; SECOND series, also printed as 12F1 (possibly 6G8), step 10 of 10 (lowest); parameters: scale not given here
[22] = target: BCMA-CAR (CAR with the CT103A scFv) on cells; experiment: flow cytometry, AF647-labelled antibody on BCMA-CAR-Jurkat cells; SECOND series, also printed as 12F1 (possibly 6G8), 2-fold dilution step 1 of 10 (highest); parameters: scale not given here

Chain of BCMA-CAR (CAR with the CT103A scFv) on cells (chain, as listed by the source): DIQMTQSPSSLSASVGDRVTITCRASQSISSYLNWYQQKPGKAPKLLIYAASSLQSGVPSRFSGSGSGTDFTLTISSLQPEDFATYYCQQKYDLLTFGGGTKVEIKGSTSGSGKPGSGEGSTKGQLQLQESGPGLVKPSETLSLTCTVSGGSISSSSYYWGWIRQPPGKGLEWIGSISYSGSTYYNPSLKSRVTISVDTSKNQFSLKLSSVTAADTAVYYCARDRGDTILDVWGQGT
Chain of CT103A scFv (scFv, as listed by the source): as the sequence (chain, as listed by the source) above

信号抑制率 (CT103A scFv [1]): > 90% | 信号抑制率 (CT103A scFv [2]): > 90% | MFI [3]: 15.3 | MFI [4]: 15.3 | MFI [5]: 14.3 | MFI [6]: 12.4 | MFI [7]: 7.73 | MFI [8]: 4.37 | MFI [9]: 2.83 | MFI [10]: 1.53 | MFI [11]: 0.94 | MFI [12]: 3.16 | MFI [13]: 1.98 | MFI [14]: 1.28 | MFI [15]: 0.81 | MFI [16]: 0.53 | MFI [17]: 0.37 | MFI [18]: 0.31 | MFI [19]: 0.25 | MFI [20]: 15.3 | MFI [21]: 0.22 | MFI [22]: 4.66
B1: 12F1 (antibody, V domains shown)
VH: QSLEESGGRLVTPGTPLTLTCTVSGFSLNSNAMGWVRQAPGKGLEYIGFIAAYGDTHNATWAKGRFTISKTSTTVDLKITSPTTEDTATYFCASTYGGDGGWYFNIWGPGTLVTVSE
VL: AFELTQTPSSVEAAVGGTVIIKCQASQNIVRYLSWYQQKPGQPPKLLIYEASNLASGVPSRFSGSGSGTEFTLTISDLECADAATYYCQSYYDAESFNTFGGGTEVVVKG
